Measurements taken from publication PMC12024540, “Peptide-Based Regulation of TNF-α-Mediated Cytotoxicity” (Biomolecules, 2025).

System: caspase-3 and caspase-7 activities in L929 cells
Assay: Caspase-Glo 3/7 apoptosis assay on TNF-α-stimulated L929 cells
Assay type: cell-based, mouse
Conditions: at 10 nM and 100 nM with TNF-α 1 ng/mL
Procedure: Apoptosis was detected by measuring caspase-3 and caspase-7 activities with the Promega Caspase-Glo 3/7 Assay Kit. A total of 1.5 × 10^4 cells were seeded onto opaque 96-well tissue culture plates. After 24 ± 2 h of incubation, cells were stimulated with the same concentration of actinomycin D and TNF-α with different peptide concentrations. After 4 h of incubation in 5% CO2 at 37 °C, freshly prepared caspase 3/7 reagent was added to each well, followed by incubation for 1 h at room temperature. Luminescence was measured using a plate reader (CLARIOstar Plus, BMG Labtech, Ortenberg, Germany). Fold change was calculated from the ratio of luminescence of cell control to that of TNF-α-treated cells.

B1: TNFR1: Human TNFR1 (soluble) recombinant protein applied with TNF-α in the caspase 3/7 assay (protein)
chain: SVCPQGKYIHPQNNSICCTKCHKGTYLYNDCPGPGQDTDCRECESGSFTASENHLRHCLSCSKCRKEMGQVEISSCTVDRDTVCGCRKNQYRHYWSENLFQCFNCSLCLNGTVHLSCQEKQNTVCTCHAGFFLRENECVS
modifications: fluorescent label from the Monolith Protein Labeling Kit RED-NHS 2nd Generation (labelled target in MST)
notes: Human TNFR1 (soluble) recombinant protein applied with TNF-α in the caspase 3/7 assay
Q: B1 was tested. Which “effect on caspase 3/7 activity” value did it give?
A: significantly reduced caspase 3/7 activity
